Results reported in patent US20120129159A1 (MIT, published 2012).
Residue numbers refer to the chain shown, from its start. One block for each binder: values may come before it.

Assays:
mCherry-FKBP-LAP1 = mCherry-FKBP-LAP1 (UniProt P62942 2-108); assay: cell-based or functional assay
FKBP-LAP1 = FKBP-LAP1 (UniProt P62942 1-108, limits assumed); assay: cell-based or functional assay
FKBP-LAP1, sequence (P62942 other isoform, or with tags, fused parts or gaps limits assumed): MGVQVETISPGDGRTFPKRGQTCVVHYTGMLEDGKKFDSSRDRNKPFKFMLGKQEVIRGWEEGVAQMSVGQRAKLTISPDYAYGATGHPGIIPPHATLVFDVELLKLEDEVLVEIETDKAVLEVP

mCherry-FKBP-LAP1, sequence (P62942 other isoform, or with tags, fused parts or gaps): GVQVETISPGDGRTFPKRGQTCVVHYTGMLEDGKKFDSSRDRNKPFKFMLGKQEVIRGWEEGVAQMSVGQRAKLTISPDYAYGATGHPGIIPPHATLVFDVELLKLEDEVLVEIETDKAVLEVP
FKBP-LAP1, P62942, sequence (P62942 whole entry, looked up): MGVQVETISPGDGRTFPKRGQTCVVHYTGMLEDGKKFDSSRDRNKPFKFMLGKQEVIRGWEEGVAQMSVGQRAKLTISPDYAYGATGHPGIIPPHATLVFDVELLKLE

minimum concentration of mCherry-FKBP-LAP1 required for a signal-to-background ratio >2:1 (mCherry-FKBP-LAP1): 6 µM
B1: FRB-LplAW37V (other)
chain: ILWHEMWHEGLEEASRLYFGERNVKGMFEVLEPLHAMMERGPQTLKETSFNQAYGRDLMEAQEWCRKYMKSGNVKDLTQAWDLYYHVFRRISKSTLRLLISDSYDPWFNLAVEECIFRQMPATQRVLFLVRNADTVVIGRAQNPWKECNTRRMEEDNVRLARRSSGGGAVFHDLGNTCFTFMAGKPEYDKTISTSIVLNALNALGVSAEASGRNDLVVKTVEGDRKVSGSAYRETKDRGFHHGTLLLNADLSRLANYLNPDKKKLAAKGITSVRSRVTNLTELLPGITHEQVCEAITEAFFAHYGERVEAEIISPNKTPDLPNFAETFARQSSWEWNFGQAPAFSHLLDERFTWGGVELHFDVEKGHITRAQVFTDSLNPAPLEALAGRLQGCLYRADMLQQECEALLVDFPEQEKELRELSAWMAGAVR

+/- rapamycin signal-to-background ratio of lipoylation, anti-lipoic acid immunoblot, purified proteins at 10 µM each (FKBP-LAP1): > 12 ratio (:1)
signal-to-background ratio of lipoylation in COS7 cells (+/- 100 nM rapamycin), cell lysis and immunoblot (FKBP-LAP1): 15 ratio (:1)
signal-to-noise ratio of lipoylation in COS-7 cells with 3 minutes of lipoic acid treatment (FKBP-LAP1): 2.5 ratio (:1)
B2: FRB-LplA (other)
chain: B1 chain with V130W

B3: LplAW37V (protein)
chain: STLRLLISDSYDPWFNLAVEECIFRQMPATQRVLFLVRNADTVVIGRAQNPWKECNTRRMEEDNVRLARRSSGGGAVFHDLGNTCFTFMAGKPEYDKTISTSIVLNALNALGVSAEASGRNDLVVKTVEGDRKVSGSAYRETKDRGFHHGTLLLNADLSRLANYLNPDKKKLAAKGITSVRSRVTNLTELLPGITHEQVCEAITEAFFAHYGERVEAEIISPNKTPDLPNFAETFARQSSWEWNFGQAPAFSHLLDERFTWGGVELHFDVEKGHITRAQVFTDSLNPAPLEALAGRLQGCLYRADMLQQECEALLVDFPEQEKELRELSAWMAGAVR
Km of the enzyme for LAP1 (HPLC assay, ligation of coumarin probe to purified FKBP-LAP1) (FKBP-LAP1, P62942): 681 ± 168 µM
